Measurements reported in patent US20190153092A1 (NBE THERAPEUTICS, published 2019).
Substitutions are numbered along the chain they refer to.

B1: rbQ11, humanized from R11 (antibody, human IgG1, V domains shown)
VH: EVQLVQSGGGLVQPGGSLRLSCAASGSDINDYPISWVRQAPGKGLEWVSFINSGGSTWYASWVKGRFTISRDNAKNSLYLQMNSLRDDDTATYFCARGYSTYYGDFNIWGQGTLVTVSS
VL: DIVMTQSPSSLSASVGDRVTITCQASQSIDSNLAWFQQKPGKAPKSLIYRASNLASGVPSKFSGSGSGTDFTLTISSLQREDAATYYCLGGVGNVSYRTSFGGGTKVEIK
notes: Human IgG1/kappa, expressed in 293T cells and purified; also called huR11-Q11; rbQ11-32
B2: rbD4, humanized from R11 (antibody, human IgG1, V domains shown)
VH: EVQLVESGGGLVQPGRSLRLSCTASGSDINDYPISWFRQAPGKGLEWVGFINSGGSTWYASWVKGRFTISRDDSKSIAYLQMNSLKTDDTATYFCARGYSTYYGDFNIWGQGTTVTVSS
VL: B1 VL with I2V, K45N, S46L, K61R, D70E, G103Q
notes: Human IgG1/kappa, expressed in 293T cells and purified; also called huR11-D4; rbD4-32
B3: rbQ12, humanized from R11 (antibody, human IgG1, V domains shown)
VH: B1 VH with Q6E, D87A, L114M
VL: B1 VL with D1E, K45N, S46L, K61R, D70E, G103Q
notes: Human IgG1/kappa, expressed in 293T cells and purified; also called huR11-Q12; rbQ12-40
B4: hu2A2-D23, humanized from 2A2 (antibody, human IgG1, V domains shown)
VH: QVQLVESGAEVKKPGASVKLSCKASGYTFSDYEMHWVRQAPGQRLEWMGAIDPETGGTAYNQKFKGRVTITVDKSASTAYMELSSLRSEDTAVYYCTGYYDYDSFTYWGPGTTVTVSS
VL: DIVMTQSPSTLSASVGDRVTITCKASQNVDAAVAWYQQKPGTAPKLLIYSASNRYTGVPSRFSGSGSGTEFTLTISSLQSEDLADYFCQQYDIYPYTFGQGTKLEIK
notes: Human IgG1/kappa, expressed in 293T cells and purified; also called msD23-19
B5: hu2A2b-Q11, humanized from 2A2 (antibody, human IgG1, V domains shown)
VH: EVQLVQSGAEVKKPGASVKVSCKASGYTFSDYEMHWVRQAPGQGLEWLGAIDPETGGTAYNQKFKGRVTMTGDTSISTAYMELSRLTSDDTAVYYCTGYYDYDSFTYWGQGTLVSVSS
VL: B4 VL with V3Q, T10S, A13T, T42K, P59A, E70D, L73F
notes: also called hu2A2-Q11; msQ11-3
B6: hu2A2-D16, humanized from 2A2 (antibody, human IgG1, V domains shown)
VH: B5 VH with Q6E, L48V, G72R, I76T, A79V, R85S, T87R, D89E, S115T
VL: B4 VL with V3Q, T10S, T42K, V58I, S60T, E70D, L104V
notes: Human IgG1/kappa, expressed in 293T cells and purified; also called msD16-7
B7: Chimeric mAb R12 (rabbit variable regions, human IgG1/lambda constant regions) (antibody, V domains shown)
VH: QEQLVESGGRLVTPGGSLTLSCKASGFDFSAYYMSWVRQAPGKGLEWIATIYPSSGKTYYATWVNGRFTISSDNAQNTVDLQMNSLTAADRATYFCARDSYADDGALFNIWGPGTLVTISS
VL: ELVLTQSPSVSAALGSPAKITCTLSSAHKTDTIDWYQQLQGEAPRYLMQVQSDGSYTKRPGVPDRFSGSSSGADRYLIIPSVQADDEADYYCGADYIGGYVFGGGTQLTVT
notes: Full-length IgG1 with human gamma 1 and lambda constant regions; also called parental mAb R12
B8: huR12_11, humanized from R12 (antibody, human IgG1, V domains shown)
VH: QVQLVESGGALVQPGGSLTLSCKASGFDFSAYYMSWVRQAPGKGLEWIATIYPSSGKTYYAASVQGRFTISADNAKNTVYLQMNSLTAADTATYFCARDSYADDGALFNIWGQGTLVTVSS
VL: B7 VL with E1Q, P17S, Q40A, E42Q, Q49Y, T57E, P60S, P80S, T111G
notes: Human IgG1 with lambda light chain
B9: huR12_16, humanized from R12 (antibody, human IgG1, V domains shown)
VH: B8 VH with A10E, Q13T, T50S, S63A
VL: B7 VL with E1Q, P17S, Q40A, E42Q, Q49Y, T57E, P60S, P80S, T111G
notes: as for B8
B10: chimeric mAb 2A2 (mouse variable regions, human IgG1/kappa constant regions) (antibody, V domains shown)
VH: QVQLQQSGAELVRPGASVTLSCKASGYTFSDYEMHWVIQTPVHGLEWIGAIDPETGGTAYNQKFKGKAILTADKSSSTAYMELRSLTSEDSAVYYCTGYYDYDSFTYWGQGTLVTVSA
VL: DIVMTQSQKIMSTTVGDRVSITCKASQNVDAAVAWYQQKPGQSPKLLIYSASNRYTGVPDRFTGSGSGTDFTLTISNMQSEDLADYFCQQYDIYPYTFGGGTKLEIK
notes: also called chim 2A2; parental mAb 2A2
B11: huR12_4, humanized from R12 (antibody, human IgG1, V domains shown)
VH: B8 VH with A10E, Q113K
VL: QLVLTQSPSVSAALGSSAKITCTLSSAHKTDTIDWYQQLAGQAPRYLMYVQSDGSYEKRSGVPDRFSGSASGADRYLAISRVQADDEADYYCGADYIGGYVFGGGTQLTVLG
notes: as for B8
B12: huR12_7, humanized from R12 (antibody, human IgG1, V domains shown)
VH: B8 VH with A10E, Y80S, Q113K
VL: B11 VL with A70S, A78I, R81S
notes: as for B8

Tests used:
[1] = molecular target: T1, StrepII-tagged ROR1-extracellular domain (human) (human, UniProt Q01973 30-406); test: SPR (Biacore T200), purified mAb captured by anti-human Fc, ROR1-strep 2.5-20 nM as analyte, 1:1 model, 25 C
T1 construct: extracellular domain; also called ROR1-strep; soluble ROR1-strep
Description: ROR1-strep was diluted in running buffer using 2-fold serial dilutions ranging from 20 nM to 2.5 nM. Association was measured at a flow of 30 μl/min for 120 s, and dissociation was followed for 200 s. Curves were fitted using 30 s dissociation due to upper plateau formation at later timepoints. Capture levels ranged from 29.1 RU to 57.7 RU.

[2] = molecular target: T1, StrepII-tagged ROR1-extracellular …; test: SPR (Biacore T200), purified mAb captured by goat anti-human Fc-gamma IgG, ROR1-strep 1.25 to 20 nM, 120 s association, 1000 s dissociation, 1:1 model
Description: FIG. 13: Comparison of affinities of humanized and parental R12 mAbs determined by SPR using purified antibody. The three humanized R12 mAbs indicated were expressed at large scale in HEK293T cells, purified by Protein A affinity chromatography and subjected to SPR analysis for determination of affinity towards soluble ROR1-strep. Antibodies were captured using a goat α-human Fc-gamma-specific IgG. ROR1-strep was diluted in running buffer using 2-fold serial dilutions ranging from 1.25 nM to 20 nM. Association was measured 120 s, and dissociation was followed for 1000 s. Capture levels ranged from 26.9 RU to 54.1 RU.

[3] = molecular target: T1, StrepII-tagged ROR1-extracellular …; test: SPR (Biacore T200), IgG from HEK293T supernatant captured by anti-human Fc, ROR1-strep 2.5-20 nM as analyte, 1:1 model, 25 C
Description: For initial determination of huR12 clone affinities and parental R12 using transient HEK293T supernatants, IgG expression vectors were transiently transfected into 293T cells and IgG titers in supernatants were quantified by ELISA. For SPR, supernatants were diluted to 1 μg/ml IgG with running buffer (HBS-EP+ pH 7.4 (10 mM HEPES, 150 mM NaCl, 3 mM EDTA, 0.05% Tween 20)) and captured for 200 s with a flow of 30 μl/min. ROR1-strep was diluted in running buffer using 2-fold serial dilutions ranging from 20 nM to 2.5 nM. Association was measured at a flow of 30 μl/min for 120 s, and dissociation was followed for 1000 s. Capture levels ranged from 26.9 RU to 54.1 RU.

T1 sequence (Q01973 other isoform, or with tags, fused parts or gaps): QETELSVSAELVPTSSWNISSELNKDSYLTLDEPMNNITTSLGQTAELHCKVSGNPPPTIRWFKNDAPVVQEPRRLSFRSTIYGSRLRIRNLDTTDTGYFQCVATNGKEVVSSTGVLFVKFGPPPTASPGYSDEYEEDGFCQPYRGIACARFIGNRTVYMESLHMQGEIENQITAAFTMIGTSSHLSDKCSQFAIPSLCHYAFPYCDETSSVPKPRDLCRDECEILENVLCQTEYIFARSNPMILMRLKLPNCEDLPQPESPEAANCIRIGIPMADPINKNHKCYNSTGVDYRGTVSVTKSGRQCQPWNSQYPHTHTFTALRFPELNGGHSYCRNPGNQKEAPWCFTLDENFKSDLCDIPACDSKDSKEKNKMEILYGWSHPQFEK

Binder | Kd [1] [nM] | koff [1] [s⁻¹] | kon [1] [M⁻¹ s⁻¹] | Kd [2] [nM] | Kd [3] [nM] | koff [3] [s⁻¹] | kon [3] [M⁻¹ s⁻¹]
B1 | 6.1 | 0.00498 | 821000 | – | – | – | –
B2 | 9 | 0.0071 | 785000 | – | – | – | –
B3 | 14.2 | 0.0104 | 733000 | – | – | – | –
B4 | 8 | 0.0138 | 1.72e+06 | – | – | – | –
B5 | 9.9 | 0.0173 | 1.75e+06 | – | – | – | –
B6 | 10.9 | 0.0189 | 1.73e+06 | – | – | – | –
B7 | – | – | – | 0.427 | 1.03 | 0.000361 | 349000
B8 | – | – | – | 0.0616 | 0.084 | 9.65e-05 | 1.15e+06
B9 | – | – | – | – | 0.092 | 8.79e-05 | 960000
B10 | 5.7 | 0.00968 | 1.69e+06 | – | – | – | –
B11 | – | – | – | 0.0571 | 0.091 | 9.93e-05 | 1.09e+06
B12 | – | – | – | 0.051 | 0.11 | 0.000116 | 1.05e+06
